Laboratory results from the DeepSol protein solubility set.

Experiment: soluble on expression in E. coli; label from the status in PepcDB or PDB records

| Sequence | soluble on expression in E. coli |
| --- | --- |
| MSLNRRHTIKHNFPIVGHFRYLLEKIGPELRQYIVANNREELPFNRRQRSWIYASSKQENNYQGFGTDQDQNSPGFVFIKPSMFSYAVKEGHPNKKKPDFVPCAKIMGAYNKRRRPYRPYSIINISGMSYGSLSARAVESLNKGALKAGCYQNTGEGSLAPHHKHGADIMFHFGTGYFGVRDEHGNFSMSKLKALVEANPCIRAIDLKLSQGAKPGKGGVLPASKITQEIADIRGLPMGKDVISPAYHSVFSNVPEMMDFIENIAQETGLPVGFKSAVGKMEMWVELADRMLEKGYGPDFITIDGGEGGTGAAPPAFADHVSLPFVYAFSNVYKIFAERGLTDRIVFAASGKLGFPESSLMAFALGADVIHVAREAMMSIGCIQAQVCHNNTCPSGVATQNKWLQSGIDVPLKADRLYNYIKNLRKEVLEITHACGYEHPSQMTMTDIDISMGDNNLTMPLVDAYKYNKIPVNFESMQKLADEGHHHHHH | not soluble |
| MMLSALVYTYPYKRSSGFERLRDRIHRKRHRHQKPSVMNETDELYEMSMVTQKSDDDSDLASRIRSEKSIPSTLTTPPTVTYHRRHHHHHKKNRREKNEELCESQRKIVELNTQSHEFDPPFVVEVRCLNSQSPIGSLLSGQEQTCFKGMLRCVQQYADVHVSRRSVGSIHWHPFTIPDAPISCQCMWPVDRYGHQEF | soluble |
| MHHHHHHSSGVDLGTENLYFQSMINSFYAFEVKDAKGRTVSLEKYKGKVSLVVNVASDCQLTDRNYLGLKELHKEFGPSHFSVLAFPCNQFGESEPRPSKEVESFARKNYGVTFPIFHKIKILGSEGEPAFRFLVDSSKKEPRWNFWKYLVNPEGQVVKFWRPEEPIEVIRPDIAALVRQVIIKKKEDL | soluble |
| MAHHHHHHMNIALSHIKKQRCARLYSISSSNNMENLSVAIKIHKYEQTENAPNITNYGYCSGFIKNLKINDDIYLTGAHGYFNLPNDAIQKNTNFIFIATGTGISPYISFLKKLFAYDKNNLYNRNSNYTGYITIYYGVYNEDSILYLNELEYFQKMYPNNINIHYVFSYKQNSDATSFYVQDEIYKRKTEFLNLFNNYKCELYICGHKSIRYKVMDILKSHDQFDEKKKKRVHVEVY | not soluble |
| MIKPALLDKKIEKPHSWEDIPHGEWICELIQSRLDEWCPKLFGYHMLKIGGLSAELDSRFCNIKHQVNLDNKNSLRNITAELPQLPFLEKSIDACVLAHQLDYSSDPHQLLREIDRVLIGDGYVILTGFNPMSAIGLASLFPWRKNNLPWSGRMFTPHRIKDWLSVLNFEVVYSDCFALAPLTRYRTMWTWFEGLGGDAVKPISGIYFIVARKRTYPLRPIKSAWKKKPKLAPISVAQTRQGKMKSD | not soluble |
| SASSSKALIESIGSLDKDSYVSLLSKLIGESKFVQNNPPELIPQEDLIVKHVLDSLRPYSTETGGGPLVINHVAYHSGRGNLIVEYPGSVPGKILSFVGMHMDVVTANPDDWEFDPFSLSIDGDKLRGRGTTDCLGHVALVTELMKKLGQAKPALKSTVVAVFIASEENSSIPGVGVDMLVKDKLLDKLKSGPLYWIDTADKQPCVGTGGMIPWKLQFTGKLFHSGLAHKAINAMELAMEGLKEIQARFYRDFPPHPQEEVYGFATPSTMKPTQWCYPAGGINQIPGECTVSGDVRLTPFYDVKEVITKLQEYVDDINGNIERLETRGPVSKYVLPDENLRGRLTLSFDEASAGVACNLDSPGFHVLCKATEEVVGHVKPYSITGTLPLIRDLQDEGFDVQTSGYGLMATYHAKNEYCLLTDMCQGFDVFIRIISQLEQV | soluble |
| MITLHTNFGDIKIQLNFEKAPVTSANFEQYCREGFYDNTLFHRVIDGFMIQGGGMTSGLREKETRDPIRNEANNGLSNKVGTIAMARTMDPHSASSQFFINVNNNTFLDFRSESRDGWGYCVFGEVVEGMDIVNKIKGVSTGSYGMHQDVPLEEVVITGTTIEA | not soluble |
| MTEITGGTLVLVGADHPVAHLDVTAFEASVTHDVMAASVAGTGLGVSTATAAGLSHLVVDAGVAQPVQGARSVRIRGERGDLRHADAMTPVQVEALLRDGQALGAEASHDGLVCLGEVGVGNTTIATALACAMTGLGPDEAVGLGAGSDTAMVERKAEIIKAALTRTHTDPNDPERLLAALGGPEFAVLAGVCLGAAEAGSPVVLDGLATSVAALIATKFSPGLHGWLVASQASREQVHHIVLAELGLEALMELRMRAGEGVGACFGAQMILTGLQVRRTAARTCLEHHHHHH | not soluble |
| METLSDVFATFSQRGDTTAFVHRTGVRRYVFTYLDLHALSLRMNRWLADQGVGEGDRVVLWGPNSPWWAVAFWGIVTRGAVAVPVDFMSGAERAEIIAGLTDAKLVIQSRDKLDRLTGRPSVLLEELGFLLEAVEPLATTHRPAPDDMAELIYTSGTTGNPKGVILTHRNLVANILQVNRHIPVVTPDFSFLSLLPLSHMFEQMGGFFTPLYRGAAIVYIRTLKPSAIMEALGEEDIYAIIAVPRLLQLLKGSVERELEAKGLGSIFRWLLKVGERMSRGGRSVLFRPIQRKFGRNFALFVSGGAPLDPEVFRFWNGLGFRVVEGYGLTECSPVLTANTMERQVMGSVGTPLDGVELRLEEGEILARGDNIFPGYFRNEEATRGAFVDGWFRTGDLGELDPDGWLRIKGRSKELIVTGAGVNVYPDEIEAILNRTQGVREGCVIGLDRGKGEEVHGVLILDGSGRPTEEIVNEVNAKFDELHRITSFSVWPEAEFPKTTTLKIRKFQVKERIEQGGGALGDGRGADRLTALVATITGSPLEQVTEGALLVNDLGLTSIARLELVNALEMEFRLDLEDSVIGPQTRVADLREIVSRREKVHIREHFRIWAMGGVALAVRRLLDTVLHGPLLRAFVTLKSLGIENLEAADGPVMFVSNHLSYLDQPAIMCVLPDAWRYNTATAAWEEFFFRNFKNLPQRLWKRFTYEYASVAFTVFPLPQSRGFRGALHFMGTLADQGMNILLFPEGERSRDGRLLPFQQGLGVMIRELGVPVVPVRIRGLEKVLPRGASWPQKGEVSITFGKPIHFRGESPTEIVDRARRAVEDLLEHHHHHH | not soluble |
| MESAIKKRRLEDSKLLGDLWQRLSHSRKKLMEIFHIILNQICLLPILESSCDNIHGFIEEFLQIFSSLLQEKRFLRDYDALFPVAEDISLLQQASSVLDETRTAYILQAVESAWEGVDRRKATDAKDPSVIEEPNGEPNGVTVTAEAVSQASSHPENSEEEECMGAAAAVGPAMCGVELDSLISQVKDLLPDLGEGFILACLEYYHYDPEQVINNILEERLAPTLSQLDRNLDREMNPDPTPLLTSRHNVFQNDEFDVFSRDSVDLSRVHKGKSTRKEENTRSLLNDKRAVAAQRQCYEQYSVVVEEVPLQPGESLPYHSVYYEDEYDDTYDGNQVGANDADSDDELISRRPFTIPQVLRTKVPREGQEEDDDDEEDDADEEAPKPDHFVQDPAVLREKAEARRMAFLAKKGYRHDSSTAVAGSPRGHGQSRETTQERRKKEANKATRANHNRRTMADRKRSKGMIPS | soluble |
| MAYKYDRDLEFLKQLESSDLLDLFEVLVFGKDGEKRHNEKLTSSIEYKRHGDDYAKYAERIAEELQYYGSNSFASFIKGEGVLYKEILCDVCDKLKVNYNKKTETTLIEQNMLSKILERSLEEMDDEEVKEMCDELSIKNTDNLNRQALSAATLTLFKMGGFKSYQLAVIVANAVAKTILGRGLSLAGNQVLTRTLSFLTGPVGWIITGVWTAIDIAGPAYRVTIPACIVVATLRLKTQQANGDKKSLQIESI | not soluble |
| MSGGSSRRYPPELRERAVRMVAEIRGQHDSEWAAISEVARLLGVGCAETVRKWVRQAQVDAGARPGTTTEESAELKRLRRDNAELRRANAILKTASAFFAAELDRPAR | soluble |
| MAHHHHHHMKEHSHIIGLGDFFADAKKCWVLLASKSPRRIELMKLMGVSNLYICESGFEENLDKKQFASAEHYVKENALQKGLNVASHVWFGDQANTHSEGNVKEEETKKSTQQGSDSGHLSIGQPENEQHCTDATKKHQVKSLHSTYDPIPKVIISCDTIVTLKDEIIEKPLNKEHAREILKKLSSNIHCVYTAVCIFLHKTKVPITFIEKTDVHFDDLLEQDILEYLNSSEPYDKAGAYSIQGVGCQFIKKINGCYYNVMGLPINKLSKTLTQLCVEGKISA | soluble |
| MGSDKIHHHHHHTEGWFMPFDNWLYQLQNADPVEISSSGFEIAVIDYSKDGSESGEYSPEEIKIMVDAGVVPVAYVNIGQAEDYRFYWKESWYTNTPEWLGEEDPAWPGNYFVKYWYNEWKEIVFSYLDRVIDQGFKGIYLDRIDSFEYWAQEGVISRRSAARKMINFVLEIAEYVRERKPDMLIIPQNGENILDFDDGQLASTVSGWAVENLFYLKTIPLEENETKSRLEYLIRLNRKGKFILSVDYVDDGSDSFENISRILDYYEKAKRNGCIPYAARSDLELDEMNVIEGIQPPEALKDYESRTYR | soluble |
| MGSDKIHHHHHHMNAHTIPELRYAMSREAIIGHETAWKVSSFGVAQYLHGYDPALLAAIEEAALKLKDSHAVHKHLDLTFITGADRFIPEIKELLHDKLRLERLSDMMGTKLEPYPLSIVGSTVTFMNPRDGAVEWHCDGVPVTELIPLSISNPLVGGHLEIYCDDSETGRAILESGREIPRNRIMRIDHKMNYATLGQFLGVLHRTAPIQYGERVTLVLNQRSVAKPYVDDNRMFYLAADNDHDREWVNELAEDVWTNQLPAYRRFEAEHPTPAPASETQVSGGARGSW | not soluble |
| MNTISILSTTDLPAAWQIEQRAHAFPWSEKTFFGNQGERYLNLKLTADDRMAAFAITQVVLDEATLFNIAVDPDFQRRGLGRMLLEHLIDELETRGVVTLWLEVRASNAAAIALYESLGFNEATIRRNYYPTAQGHEDAIIMALPISMKLHHHHHHHHHH | soluble |
| MSKYKIFVDGAVGTTGLGIFERLRAAKDIELLTLADEQRKDLKARLANVAAADLTLLCLPDTASKQLVLHAPPSAKICDTSTAHRVDPAWVYGFAELSGQFNNIQTATRVAIPGCHATGYIALLRPLIERHYLNADYPFTCHSLTGYSGGGKAMIADYQAPIRDDKFKAPRMYGLTLHHKHLAEMCAFTGSSNPPIFTPIVADYYSGMLVNVPLPLAAFTQEANDGEKISGILADYYREASLINVHYVNDLPTDGMVAANSLAGKDRLDIFVYANQTQVVLSAIFDNLGKGASGAAIQCMNIMLGRDQLADLHI | not soluble |
| MVQDQIRYDILVQDALRGVIRKVLSEVAKAGLPGSHHFFITFLTNAPGVKISTRLKSRYPEQMTIVLQHQFRDLNVSETAFEVTLSFREVSEKLVIPFHSIQVFYDPVAAFEAAFDLPSNLNSKEGENLENIASTPVILSDTQKKEKKFPKEQISKTNKDSSNNDTKQSADVVSLDSFRKKLEHHHHHH | soluble |
| MKKVIKKYFFLALAIIMYSCNEDEKYDILERYTPETITSDEIAPVLNLQAQYMDSNSEIVLVTWMNPEDDFLSKVEISCCSANDNLLGEPVLLDAVSTKVGSYQTSLSVEERGYVKIVAINEKGVRSEARTAEILSSQQDFVYRADCLMSSVIELFFGGRYNAWNENYPNATGPYWDGIAAVWGQGAAYSGFVTMYKVTKETNNEKLRAKYAEKEETFLNSIDIFLNNGSGRKSFAYGTYIGPNDERYYDDNVWIGIEMANLYELTGNEVYLQHANTVWNFILEGIDDVTGGGVYWKEGAVSKHTCSTAPAAVMALKLYQLSKNESYLEIAKSLYSYCKDVLQDPNDYLFYDNVRLSDPSDKNSELKVSKDKFTYNSGQPMLAAAMLYRITKEEQFLKDAQNIAQSIYKKWFKNYHSSILDRDIMILSDPNTWFNAVMFRGFVELYKIDKNDVYVKAVKNTMEHAWQSNCRNRLTNLMSDDYAGDKKEGKWNIKTQGAFVEIFSLIGELEQLGCFQELEHHHHHH | not soluble |
